Values belong to the binder of their own block, whether it stands above or below them.
What was measured:
[1] = biological target: T1, human FGFR2(beta)IIIb-Fc (amino acids 152-378, missing D1, fused to human Fc) (human, UniProt P21802-3 152-378); experiment: ELISA on the four FGFR2-Fc forms, fixed mAb concentration
T1 construct: range 152-378; The signal peptide used for secretion of the beta form is not described; also called beta form of FGFR2IIIb; not shown: human Fc, residues 216 to 446
Protocol: ELISA assay for mAb binding to FGFR2 fusion protein. ELISA plates were coated with goat anti-human IgG-Fc (2 µg/ml) overnight at 4° C. Then nonspecific binding sites were blocked with 2% BSA for 1 hr at RT. Plates were incubated with one of the FGFR2 fusion proteins described above (1 µg/ml) for 1 hr, followed by incubation with various concentrations of mAbs or hybridoma culture fluids for 1 hr. The bound mAb was detected with HRP-Goat anti-mouse antibody followed by washing, addition of TMB substrate (Sigma) and reading at 450 nm. In all ELISA assays, plates were washed 3 times between each step.
Figure 3: FIG. 3. Binding ELISA of mAbs GAL-FR21, GAL-FR22 and GAL-FR23 and negative control mIgG to FGFR2IIIb. Figure 4: FIG. 4. Binding ELISA of mAbs GAL-FR21, GAL-FR22 and GAL-FR23 and negative control mouse mAb 5G8 to each of the four forms of FGFR2—FGFR2IIIb, FGFR2(beta)IIIb, FGFR2(IIIc) and FGFR2(beta)IIIc—as fusion proteins with Fc. A fixed concentration of each mAb was used in the assay.

[2] = biological target: T2, human FGFR2IIIb-Fc (alpha form, entire ECD amino acids 1-378 fused to human Fc) (human, UniProt P21802-3 22-378); experiment: ELISA, FGFR2IIIb-Fc captured by anti-human IgG-Fc
T2 construct: range 1-378; Secreted from 293F cells and purified on protein A/G; not shown: human Fc, residues 216 to 446
Protocol: (§1) To determine the ability of the mAbs to bind to FGFR2 from species other than human, ELISA assays were used. ELISA wells were coated with 2 µg/ml of goat anti-human IgG-Fc overnight at 4° C. After blocking with 2% BSA for 1 hr at RT, the wells were incubated with 0.2 µg/ml of FGFR2IIIb-Fc for 1 hr, where the FGFRIIIb in the fusion protein was either human, mouse, cynomolgus monkey or chimpanzee FGFRIIIb. The wells were then incubated with various concentrations of GAL-FR21 or GAL-FR22 mAb. The bound mAbs were detected by addition of HRP-conjugated goat anti-mouse IgG-Fc and then TMB substrate. […] A similar experiment with chimpanzee FGFR2 gave the same results as with cynomolgus monkey FGFR2: GAL-FR21 bound to chimpanzee FGFR2 as well as (indistinguishably from) human FGFR2, while GAL-FR22 bound to chimpanzee FGFR2 moderately well (within about 100-fold of human FGFR2). […] Binding to FGFR2 from such other species makes testing of the mAbs in those animal species easier to conduct.

[3] = biological target: T3, Chimpanzee FGFR2IIIb-Fc (human FGFR2IIIb ECD with residue 186 methionine to threonine, fused to human Fc) (chimpanzee; human, UniProt P21802-3 22-378); experiment: ELISA, FGFR2IIIb-Fc captured by anti-human IgG-Fc
T3 construct: range 1-378; Built from the human FGFR2IIIb-Fc construct; also called chimp FGFR2IIIb; not shown: human Fc, residues 216 to 446
Protocol: as §1

[4] = biological target: T4, FGFR2IIIb on KATO-III and SNU-16 human gastric tumor cells (human, UniProt P21802-3 22-822); experiment: flow cytometry on KATO-III and SNU-16 cells overexpressing FGFR2IIIb
T4 construct: whole, on cells; Endogenous receptor of human tumor cell lines; also called FGFR2IIIb on the cell membrane
Protocol: (§2) Flow cytometry. After washing twice in cell sorting buffer (CSB: PBS/1% FBS/0.02% NaN_3), 2×10^5 cells were resuspended in 50 µl of CSB in a microtiter well and incubated with 50 µl of the anti-FGFR2 mAb to be tested (1 µg/50 µl) for 1 hr on ice. Cells were then washed twice in CSB and the bound antibodies detected by incubation with FITC-goat anti-mouse IgG (Jackson ImmunoResearch Laboratories) for 1 hr on ice. After washing twice in CSB, cells were analyzed on a FACScan (Becton Dickinson).
(§3) To confirm that the selected mAbs bind to the appropriate forms of FGFR2 on the cell membrane, flow cytometry was employed. KATO-III (ATCC HTB-103) and SNU-16 (ATCC CRL-5974) cells, which overexpress FGFR2IIIb, were used to test binding to that form of the receptor. […] Human 293F cells transfected with a gene for FGFRIIIc were used to test binding to that form, after verifying that none of the mAbs bind to the host 293F cells themselves. […] Finally, since the S252W mutation of FGFR2 is found in some cancer cells, binding of the mAbs to 293F cells transfected with an FGFR2IIIb gene constructed to contain that mutation (FGFR2IIIb(S252W)) was tested. As also seen in FIG. 7, all the mAbs bound to the FGFR2IIIb(S252W)-transfected cells. The ability to bind FGFR2IIIb(S252W) is a preferred property of mAbs of the invention.

[5] = biological target: T5, FGFR2IIIc on transfected human 293F cells (UniProt P21802 22-821); experiment: flow cytometry on 293F cells transfected with FGFRIIIc
T5 construct: whole, on cells; also called FGFRIIIc
Protocol: as §2, §3

[6] = biological target: T6, FGFR2IIIb(S252W) on transfected human 293F cells (UniProt P21802-3 22-822); experiment: flow cytometry on 293F cells transfected with FGFR2IIIb(S252W)
T6 construct: whole, on cells
Protocol: as §2, §3

[7] = biological target: T2, human FGFR2IIIb-Fc (alpha form, entire …); experiment: estimate from the 50% inhibition point of the competition ELISA on FGFR2IIIb-Fc against biotinylated GAL-FR21
Protocol: To compare the binding affinity of HuGAL-FR21 with that of the mouse mAb GAL-FR21, a competitive binding experiment was performed using standard ELISA technology. Specifically, ELISA wells were coated with 2 μg/ml of goat anti-human IgG-Fc overnight at 4° C. After blocking with 2% BSA for 1 hr at RT, the wells were incubated with 0.5 μg/ml of FGFR2IIIb-Fc. The wells were then incubated with biotinylated GAL-FR21 mAb (0.05 μg/ml) in the presence of increasing concentrations of unlabeled GAL-FR21, HuGAL-FR21 or control human antibody hIgG. The level of biotinylated GAL-FR21 bound was determined by the addition of HRP-streptavidin and substrate. […] HuGAL-FR21 may also be tested in any of the biological assays for FGFR2 activity described herein, e.g., inhibition of binding of FGF2 or FGF7 to FGFR2, and will inhibit FGFR2 activity comparably to GAL-FR21.

T2 sequence (P21802 other isoform, or with tags, fused parts or gaps): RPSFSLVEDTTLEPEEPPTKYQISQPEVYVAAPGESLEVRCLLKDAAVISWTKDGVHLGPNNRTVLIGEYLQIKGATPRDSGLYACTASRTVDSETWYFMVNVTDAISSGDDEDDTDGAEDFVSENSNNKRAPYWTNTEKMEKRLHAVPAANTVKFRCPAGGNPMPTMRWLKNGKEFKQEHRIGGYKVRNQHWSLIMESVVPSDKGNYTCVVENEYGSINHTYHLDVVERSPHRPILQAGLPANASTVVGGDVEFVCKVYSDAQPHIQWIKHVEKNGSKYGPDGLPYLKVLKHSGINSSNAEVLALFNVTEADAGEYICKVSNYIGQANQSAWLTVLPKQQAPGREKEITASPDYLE
T4 sequence (P21802 other isoform, or with tags, fused parts or gaps): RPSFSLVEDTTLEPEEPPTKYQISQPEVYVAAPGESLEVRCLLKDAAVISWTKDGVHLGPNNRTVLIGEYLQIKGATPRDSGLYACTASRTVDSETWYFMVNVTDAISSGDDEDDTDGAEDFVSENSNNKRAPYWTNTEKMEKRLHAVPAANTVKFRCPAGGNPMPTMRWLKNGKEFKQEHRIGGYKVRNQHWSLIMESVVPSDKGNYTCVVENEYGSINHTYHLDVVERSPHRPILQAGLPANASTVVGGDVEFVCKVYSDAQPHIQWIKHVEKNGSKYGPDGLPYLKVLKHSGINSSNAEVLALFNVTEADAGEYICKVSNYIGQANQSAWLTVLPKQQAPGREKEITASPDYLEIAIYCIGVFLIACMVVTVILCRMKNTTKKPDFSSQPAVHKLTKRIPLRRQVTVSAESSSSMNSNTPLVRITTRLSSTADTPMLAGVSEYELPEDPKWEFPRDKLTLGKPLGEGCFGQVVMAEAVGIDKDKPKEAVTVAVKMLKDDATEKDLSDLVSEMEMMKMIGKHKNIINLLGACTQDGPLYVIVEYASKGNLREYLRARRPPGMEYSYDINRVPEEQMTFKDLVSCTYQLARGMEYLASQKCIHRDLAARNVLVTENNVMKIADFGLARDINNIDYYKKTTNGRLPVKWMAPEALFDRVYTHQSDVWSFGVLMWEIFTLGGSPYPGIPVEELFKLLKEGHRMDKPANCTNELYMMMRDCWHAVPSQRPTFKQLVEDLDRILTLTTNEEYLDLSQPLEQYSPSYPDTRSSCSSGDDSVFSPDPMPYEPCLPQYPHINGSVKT
T6 sequence (P21802 other isoform, or with tags, fused parts or gaps S252W S252W): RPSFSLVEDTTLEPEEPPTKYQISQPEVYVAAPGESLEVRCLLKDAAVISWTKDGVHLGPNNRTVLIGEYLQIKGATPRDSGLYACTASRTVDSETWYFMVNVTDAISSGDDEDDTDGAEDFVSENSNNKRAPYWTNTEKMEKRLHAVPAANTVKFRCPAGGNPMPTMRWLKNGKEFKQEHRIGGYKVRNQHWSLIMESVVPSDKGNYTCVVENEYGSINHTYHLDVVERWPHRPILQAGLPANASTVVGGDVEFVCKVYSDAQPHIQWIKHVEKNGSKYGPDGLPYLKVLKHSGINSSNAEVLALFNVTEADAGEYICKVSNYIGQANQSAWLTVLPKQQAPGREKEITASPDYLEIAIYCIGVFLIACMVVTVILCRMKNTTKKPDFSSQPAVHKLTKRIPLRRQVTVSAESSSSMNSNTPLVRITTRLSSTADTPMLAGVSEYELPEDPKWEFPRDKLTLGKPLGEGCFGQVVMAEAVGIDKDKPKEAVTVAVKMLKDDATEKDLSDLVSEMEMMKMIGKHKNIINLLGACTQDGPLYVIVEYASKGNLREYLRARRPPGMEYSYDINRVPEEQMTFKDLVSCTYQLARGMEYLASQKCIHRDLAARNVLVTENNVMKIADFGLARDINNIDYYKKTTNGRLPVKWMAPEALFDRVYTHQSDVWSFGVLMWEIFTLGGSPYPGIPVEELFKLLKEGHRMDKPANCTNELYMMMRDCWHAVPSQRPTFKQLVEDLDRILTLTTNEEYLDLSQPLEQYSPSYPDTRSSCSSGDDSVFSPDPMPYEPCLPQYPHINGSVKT
T3 sequence (P21802 other isoform, or with tags, fused parts or gaps): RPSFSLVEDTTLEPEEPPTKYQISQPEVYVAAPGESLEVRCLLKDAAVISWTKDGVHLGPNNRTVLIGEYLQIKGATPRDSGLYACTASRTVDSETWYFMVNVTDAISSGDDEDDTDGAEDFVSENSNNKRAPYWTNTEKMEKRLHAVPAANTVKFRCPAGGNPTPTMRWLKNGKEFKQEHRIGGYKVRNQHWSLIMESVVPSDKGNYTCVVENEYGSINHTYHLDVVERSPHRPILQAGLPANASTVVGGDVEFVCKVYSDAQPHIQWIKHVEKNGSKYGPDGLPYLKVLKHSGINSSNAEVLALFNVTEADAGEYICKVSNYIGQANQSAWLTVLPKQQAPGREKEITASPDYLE
T5 sequence (P21802 22-821): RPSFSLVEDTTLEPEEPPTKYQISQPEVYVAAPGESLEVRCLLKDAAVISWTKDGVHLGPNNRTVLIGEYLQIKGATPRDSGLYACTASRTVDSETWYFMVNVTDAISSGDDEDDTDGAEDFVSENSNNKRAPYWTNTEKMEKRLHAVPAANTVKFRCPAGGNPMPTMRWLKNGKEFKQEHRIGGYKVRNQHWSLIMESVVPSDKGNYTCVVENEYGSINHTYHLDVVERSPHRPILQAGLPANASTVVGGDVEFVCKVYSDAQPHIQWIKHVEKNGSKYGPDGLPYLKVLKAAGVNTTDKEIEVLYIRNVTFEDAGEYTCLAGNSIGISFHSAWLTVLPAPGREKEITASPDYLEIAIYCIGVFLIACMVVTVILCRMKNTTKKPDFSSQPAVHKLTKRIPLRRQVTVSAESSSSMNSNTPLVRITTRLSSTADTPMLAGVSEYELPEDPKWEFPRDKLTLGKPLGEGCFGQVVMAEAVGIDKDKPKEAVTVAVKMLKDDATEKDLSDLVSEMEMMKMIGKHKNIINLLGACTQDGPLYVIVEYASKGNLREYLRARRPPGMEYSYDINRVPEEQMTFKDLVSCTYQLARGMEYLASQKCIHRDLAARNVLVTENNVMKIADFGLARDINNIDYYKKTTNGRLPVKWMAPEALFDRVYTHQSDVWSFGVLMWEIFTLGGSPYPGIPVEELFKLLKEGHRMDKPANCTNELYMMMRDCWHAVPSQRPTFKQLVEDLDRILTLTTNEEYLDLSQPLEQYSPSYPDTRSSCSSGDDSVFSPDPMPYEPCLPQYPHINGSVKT
T1 sequence (P21802 other isoform, or with tags, fused parts or gaps): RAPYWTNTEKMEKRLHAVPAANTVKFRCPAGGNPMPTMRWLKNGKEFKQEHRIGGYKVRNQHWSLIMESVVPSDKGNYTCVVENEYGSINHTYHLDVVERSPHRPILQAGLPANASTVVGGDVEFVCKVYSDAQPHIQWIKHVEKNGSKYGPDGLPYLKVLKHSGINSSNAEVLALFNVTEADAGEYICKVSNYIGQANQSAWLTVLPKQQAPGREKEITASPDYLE

binding result [1]: binds | binding result [2]: binds | binding result [3]: binds | binding result [4]: binds | binding result [5]: no binding (tested: 1 µg/50 µl) | binding result [6]: binds
B1: GAL-FR21 (antibody, V domains shown)
VH: QVQLQQPGAEVVKPGASVKMSCKASGYIFTTYNVHWVKQTPGQGLEWIGSIYPDNGDTSYNQNFKGKATLTADKSSSTAYIQLSSLTSEDSAVYYCARGDFAYWGQGTLVTVSV
VL: NIVMTQSPKSMSMSVGDRVSITCKASQGVSNDVAWYQKKPGQSPKLLIYSASYRYTGVPDRFTGSGSGTDFTFTISNVQAEDLAVYYCQQHSTTPYTFGGGTKLEIK
notes: Mouse monoclonal antibody from a hybridoma; also called mouse GAL-FR21; ATCC PTA-9586

Ka [7]: ≥ 1e+09 M⁻¹
B2: HuGAL-FR21 (antibody, human IgG1, kappa, V domains shown)
VH: QVQLVQSGAEVKKPGSSVKVSCKASGYIFTTYNVHWVRQAPGQGLEWIGSIYPDNGDTSYNQNFKGRATITADKSTSTAYMELSSLRSEDTAVYYCARGDFAYWGQGTLVTVSS
VL: DIQMTQSPSSLSASVGDRVTITCKASQGVSNDVAWYQQKPGKAPKLLIYSASYRYTGVPSRFSGSGSGTDFTFTISSLQPEDIATYYCQQHSTTPYTFGQGTKLEIKR
notes: Humanized IgG1, kappa; also called humanized GAL-FR21

binding result [1]: binds | binding result [2]: binds | binding result [3]: binds | binding result [4]: binds | binding result [5]: binds | binding result [6]: binds
B3: GAL-FR22 (antibody, V domains shown)
VH: QVQLKQSGPGLVQPSQSLSITCTVSGFSLTSFGVHWVRQSPGKGLEWLGVIWSGGSTDYNADFRSRLSISKDNSKSQIFFKMNSLQPDDTAIYYCANFYYGYDDYVMDYWGQGTSVTVSS
VL: DIQMTQSPSSLSASLGGRVTITCKASQDIKNYIAWYQHKPGKSPRLLIHYTSTLQPGVPSRFSGSGSGRDYSFSISNLEPEDIATYYCLQYDDLYMFGGGTKLDIK
notes: Mouse monoclonal antibody from a hybridoma; also called GAL-FG22; ATCC PTA-9587
